Drawing on article PMC8194098, this text covers percent inhibition of binding for one molecule.

This assay deals with Ras:G12V mutant (UniProt P01112). Description: pull-down.

B1: RIN1-RA:R629A mutant (natural protein)
chain: MESPGESGAGSPGAPSPSSFTTGHLAREKPAQDPLYDVPNASGGQAGGPQRPGRVVSLRERLLLTRPVWLQLQANAAAALHMLRTEPPGTFLVRKSNTRQCQALCMRLPEASGPSFVSSHYILESPGGVSLEGSELMFPDLVQLICAYCHTRDILLLPLQLPRAIHHAATHKELEAISHLGIEFWSSSLNIKAQRGPAGGPVLPQLKARSPQELDQGTGAALCFFNPLFPGDLGPTKREKFKRSFKVRVSTETSSPLSPPAVPPPPVPVLPGAVPSQTERLPPCQLLRRESSVGYRVPAGSGPSLPPMPSLQEVDCGSPSSSEEEGVPGSRGSPATSPHLGRRRPLLRSMSAAFCSLLAPERQVGRAAAALMQDRHTAAGQLVQDLLTQVRAGPEPQELQGIRQALSRARAMLSAELGPEKLLSPKRLEHVLEKSLHCSVLKPLRPILAARLRRRLAADGSLGRLAEGLRLARAQGPGAFGSHLSLPSPVELEQVRQKLLQLLRTYSPSAQVKRLLQACKLLYMALRTQEGEGAGADEFLPLLSLVLAHCDLPELLLEAEYMSELLEPSLLTGEGGYYLTSLSASLALLSGLGQAHTLPLSPVQELRRSLSLWEQRRLPATHCFQHLLAVAYQDPSSGCTSKTLAVPPEASIATLNQLCATKFRVTQPNTFGLFLYKEQGYHRLPPGALAHRLPTTGYLVYRRAEWPETQGAVTEEEGSGQSEARSRGEEQGCQGDGDAGVKASPRDIREQSETTAEGGQGQAQEGPAQPGEPEAEGSRAAEE
As to B1, the percent inhibition of binding is 80%.
